The values below come from publication PMC12080763.

Assay [1] deals with truncated prolactin receptor of Nb2 cells (rat (endogenous in Nb2-11)).
Assay [2] shares this target. The source holds these as a separate data set.

In turn, “Fc-(FL3)-mono-hGH (from UniProt P01241 27-217) (Fc fusion)” yielded an EC50 of Nb2-11 cell proliferation (Alamar Blue, 3 days), Fig 3C in assay [1] of 0.81 nM.

“Mono-hGH-(FL3)-Fc (from UniProt P01241 27-217) (Fc fusion)” came in with an EC50 of Nb2-11 cell proliferation (Alamar Blue, 3 days), Fig 3A in assay [2] of 1.64 nM.
